According to paper PMC5429695, “Assembly of Ruminococcus flavefaciens cellulosome revealed by structures of two cohesin-dockerin complexes” (Scientific Reports, 2017):

Assays:
Assay in all cases: ITC; 308 K; dockerin in the cell (stirred at 307 revolutions/min) titrated with 28 injections of 10 uL cohesin at 220 s intervals; proteins in 50 mM HEPES pH 7.5, 0.5 mM CaCl2, 0.5 mM TCEP; single-site model
Conditions in all cases: both partners purified
[1] = target: T1, RfDoc1b, group 1b dockerin, thioredoxin A fusion, wild type (R. flavefaciens FD-1)
T1 construct: group 1b dockerin (Doc1b), C-terminal component of protein WP_009982745, a family 9 glycoside hydrolase of R. flavefaciens FD-1, residues 783-862; numbers count on: the recombinant construct of the crystal structure (RfDoc1b numbering, residues 24-102 seen in PDB 5M2S); also called Doc1bWT; Doc1b WT; source: E. coli, purified (IMAC, His GraviTrap)

[2] = target: T2, RfDoc1a Q47A, thioredoxin A fusion (R. flavefaciens FD-1)
T2 construct: numbers count on: the recombinant construct of the crystal structure (RfDoc1a numbering of PDB 5M2O); mutant of m3 (pHTP2 derivative); see the note of m3 on limits and numbering; source: E. coli, purified (IMAC, His GraviTrap)

[3] = target: T3, RfDoc1a V43A + Q47A, thioredoxin A fusion (R. flavefaciens FD-1)
T3 construct: numbers count on: the recombinant construct of the crystal structure (RfDoc1a numbering of PDB 5M2O); mutant of m3 (pHTP2 derivative); see the note of m3 on limits and numbering; source: E. coli, purified (IMAC, His GraviTrap)

[4] = target: T4, RfDoc1a V43A, thioredoxin A fusion (R. flavefaciens FD-1)
T4 construct: numbers count on: the recombinant construct of the crystal structure (RfDoc1a numbering of PDB 5M2O); mutant of m3 (pHTP2 derivative); see the note of m3 on limits and numbering; source: E. coli, purified (IMAC, His GraviTrap)

[5] = target: T5, RfDoc1a S40A, thioredoxin A fusion (R. flavefaciens FD-1)
T5 construct: numbers count on: the recombinant construct of the crystal structure (RfDoc1a numbering of PDB 5M2O); mutant of m3 (pHTP2 derivative); see the note of m3 on limits and numbering; source: E. coli, purified (IMAC, His GraviTrap)

[6] = target: T6, RfDoc1a Q83A, thioredoxin A fusion (R. flavefaciens FD-1)
T6 construct: numbers count on: the recombinant construct of the crystal structure (RfDoc1a numbering of PDB 5M2O); mutant of m3 (pHTP2 derivative); see the note of m3 on limits and numbering; source: E. coli, purified (IMAC, His GraviTrap)

[7] = target: T7, RfDoc1a, group 1a dockerin, thioredoxin A fusion, wild type (R. flavefaciens FD-1)
T7 construct: numbers count on: the recombinant construct of the crystal structure (RfDoc1a numbering, residues 23-96 seen in PDB 5M2O); also called Doc1aWT; source: E. coli, purified (IMAC, His GraviTrap)

[8] = target: T8, RfDoc1a I39A, thioredoxin A fusion (R. flavefaciens FD-1)
T8 construct: numbers count on: the recombinant construct of the crystal structure (RfDoc1a numbering of PDB 5M2O); mutant of m3 (pHTP2 derivative); see the note of m3 on limits and numbering; source: E. coli, purified (IMAC, His GraviTrap)

[9] = target: T9, RfDoc1a L87A, thioredoxin A fusion (R. flavefaciens FD-1)
T9 construct: numbers count on: the recombinant construct of the crystal structure (RfDoc1a numbering of PDB 5M2O); mutant of m3 (pHTP2 derivative); see the note of m3 on limits and numbering; source: E. coli, purified (IMAC, His GraviTrap)

[10] = target: T10, RfDoc1a K54A, thioredoxin A fusion (R. flavefaciens FD-1)
T10 construct: numbers count on: the recombinant construct of the crystal structure (RfDoc1a numbering of PDB 5M2O); mutant of m3 (pHTP2 derivative); see the note of m3 on limits and numbering; source: E. coli, purified (IMAC, His GraviTrap)

B1: RfCohScaB3, ScaB cohesin 3 with C-terminal hexa-histidine tag, wild type (domain or fragment)
chain: MPVANADVVFDFQNYTAKAGDEVTVDVLVDSKNKPISAMDVKFKVDSPLTIEEIDKESLAFNTTVMTNMAILGANFKSLDDKGEPLVPKDGAAVFTLYVNVPANTPDGTYYVGFNGKNEVHKSNDGSQFTVASKNGAITVGTPNEEG
Ka [1]: 1.03e+07 M⁻¹
dH [1]: -64.94 ± 0.44 kcal/mol
stoichiometry N [1]: 1
Ka [2]: 1.71e+07 M⁻¹
dH [2]: -48.27 ± 0.12 kcal/mol
stoichiometry N [2]: 1
Ka [3]: 436000 M⁻¹
dH [3]: -48.79 ± 0.39 kcal/mol
stoichiometry N [3]: 1
Ka [4]: 1.91e+06 M⁻¹
dH [4]: -52.08 ± 0.14 kcal/mol
stoichiometry N [4]: 1
Ka [5]: 1.09e+08 M⁻¹
dH [5]: -46.6 ± 0.15 kcal/mol
stoichiometry N [5]: 1
Ka [6]: 1.54e+08 M⁻¹
dH [6]: -39.5 ± 0.83 kcal/mol
stoichiometry N [6]: 1
Ka [7]: 1.18e+08 M⁻¹
dH [7]: -50.68 ± 0.29 kcal/mol
stoichiometry N [7]: 1
Ka [8]: 3.86e+06 M⁻¹
dH [8]: -57.26 ± 0.12 kcal/mol
stoichiometry N [8]: 1
Ka [9]: 2.81e+07 M⁻¹
dH [9]: -59.84 ± 0.19 kcal/mol
stoichiometry N [9]: 1
Ka [10]: 1.96e+07 M⁻¹
dH [10]: -59.73 ± 0.25 kcal/mol
stoichiometry N [10]: 1
